These results are taken from publication PMC3627587.

Series [1] has as its target T1, sIHF (Streptomyces coelicolor, UniProt Q9KXR9 1-107).
T1 sequence: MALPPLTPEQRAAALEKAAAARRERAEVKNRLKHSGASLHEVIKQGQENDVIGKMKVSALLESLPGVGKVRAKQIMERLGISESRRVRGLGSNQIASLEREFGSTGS
Description: EMSA.

Series [2] has as its target T1, sIHF. Put plainly: EMSA. This is another data set of the same source.

Like-named read-outs stand apart in the source and are kept apart here.

B1: 43-bp dsDNA (dsDNA)
DNA 1: ACCAGGTGGTTGCCGATCACCACGAAGCGGGTGGTGTGGCGGG
DNA 2: CCCGCCACACCACCCGCTTCGTGGTGATCGGCAACCACCTGGT
On to B1, for which the binding result in the series with sIHF [1] is reported as “binds”.

B2: 60-bp dsDNA (dsDNA)
DNA 1: CGTACGCGTCGCCACGGCGGCGGCATCGTCCACGAGAACACCCGCCACACCACCCGCTTC
DNA 2: GAAGCGGGTGGTGTGGCGGGTGTTCTCGTGGACGATGCCGCCGCCGTGGCGACGCGTACG
On to B2, for which the binding result with sIHF [1] is recorded as “binds”.

B3: 19-bp duplex (20bp OH1/OH2) (dsDNA)
DNA 1: GAGGGAGTGCGTGGGTCTGA
DNA 2: CTCAGACCCACGCACTCCCT
Consider B3, for which, in the series with sIHF [2], the binding result is recorded as “binds”.
